Each sequence was assayed on Escherichia coli TOP10 (assay: shrunken log2 fold change of peptide-encoding DNA abundance (4.5 h post-induction vs induction); higher = less antimicrobial activity (less host growth inhibition)). Settings: time post-induction: 4.5 h; library: site-saturation at positions 5, 18, 19, 20.
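Note: peptides expressed intracellularly from a pBAD plasmid library in pooled LB shake-flask culture, induced with 0.3% L-arabinose, DNA abundance read by NGS, three biological replicates, DESeq2 with apeglm shrinkage.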

Sequence | shrunken log2 fold change
RRIRWRPPRLPRPRPRPDTHPRP | 0.219
RRIRYRPPRLPRPRPRPVCEPRP | 0.0427
RRIRERPPRLPRPRPRPIQIPRP | -0.103
RRIRARPPRLPRPRPRPLVPPRP | 0.125
RRIRCRPPRLPRPRPRPPWMPRP | 0.248
RRIRKRPPRLPRPRPRPYNIPRP | -0.133
RRIRTRPPRLPRPRPRPGYDPRP | -0.697
RRIRPRPPRLPRPRPRPHNRPRP | -0.0456
RRIRSRPPRLPRPRPRPQMVPRP | -0.102
RRIRYRPPRLPRPRPRPKYMPRP | -0.998
RRIRDRPPRLPRPRPRPFHRPRP | -0.261
RRIRHRPPRLPRPRPRPPPNPRP | 0.814
RRIRCRPPRLPRPRPRPPIPPRP | 0.31
RRIRVRPPRLPRPRPRPNPPPRP | 0.231
RRIRDRPPRLPRPRPRPMGSPRP | 0.00408
RRIRIRPPRLPRPRPRPMMDPRP | -0.132
RRIRVRPPRLPRPRPRPSHHPRP | -0.448
RRIRVRPPRLPRPRPRPPANPRP | 0.3
RRIRIRPPRLPRPRPRPADFPRP | -0.162
RRIRKRPPRLPRPRPRPYDNPRP | 0.0185
RRIRARPPRLPRPRPRPDYIPRP | 0.00625
RRIRCRPPRLPRPRPRPWQPPRP | 0.0636
RRIRNRPPRLPRPRPRPVPGPRP | 0.176
RRIRGRPPRLPRPRPRPGLPPRP | 0.747
RRIRQRPPRLPRPRPRPASCPRP | 0.182

Sequence | shrunken log2 fold change
RRIRVRPPRLPRPRPRPGIEPRP | -0.28
RRIRIRPPRLPRPRPRPPPVPRP | 0.414
RRIRCRPPRLPRPRPRPIWPPRP | 0.415
RRIRTRPPRLPRPRPRPHCRPRP | -0.0822
RRIRWRPPRLPRPRPRPDSQPRP | -0.0844
RRIRTRPPRLPRPRPRPRYLPRP | -0.131
RRIRRRPPRLPRPRPRPGDGPRP | 0.467
RRIRFRPPRLPRPRPRPFCDPRP | -0.352
RRIRTRPPRLPRPRPRPFHIPRP | 0.0392
RRIRHRPPRLPRPRPRPAHQPRP | 0.0515
RRIRRRPPRLPRPRPRPLHDPRP | 0.359
RRIRIRPPRLPRPRPRPLVAPRP | -0.0566
RRIRSRPPRLPRPRPRPLGMPRP | -0.243
RRIRERPPRLPRPRPRPWAKPRP | -0.015
RRIRFRPPRLPRPRPRPGPSPRP | 0.764
RRIRTRPPRLPRPRPRPQAVPRP | -0.111
RRIRLRPPRLPRPRPRPFYLPRP | -0.572
RRIRPRPPRLPRPRPRPYYKPRP | -0.215
RRIRNRPPRLPRPRPRPIFLPRP | -0.182
RRIRLRPPRLPRPRPRPLDCPRP | 0.0132
RRIRTRPPRLPRPRPRPTSVPRP | 0.0486
RRIRFRPPRLPRPRPRPDKYPRP | -1.65
RRIRDRPPRLPRPRPRPPEMPRP | 0.78
RRIRYRPPRLPRPRPRPRIWPRP | -0.0174
RRIRIRPPRLPRPRPRPERTPRP | 0.0643

Sequence | shrunken log2 fold change
RRIRHRPPRLPRPRPRPLASPRP | -0.0121
RRIRFRPPRLPRPRPRPHSSPRP | -0.194
RRIRNRPPRLPRPRPRPGPQPRP | 0.0395
RRIRDRPPRLPRPRPRPCLPPRP | -0.272
RRIRQRPPRLPRPRPRPQYSPRP | 0.124
RRIRDRPPRLPRPRPRPDSYPRP | -0.0336
RRIRERPPRLPRPRPRPRNQPRP | -0.312
RRIRQRPPRLPRPRPRPNGAPRP | 0.451
RRIRNRPPRLPRPRPRPAENPRP | -0.0634
RRIRWRPPRLPRPRPRPCIFPRP | -0.683
RRIRDRPPRLPRPRPRPMSPPRP | 0.0807
RRIRCRPPRLPRPRPRPCQQPRP | -0.0438
RRIRARPPRLPRPRPRPPKLPRP | 0.683
RRIRTRPPRLPRPRPRPNRKPRP | -0.104
RRIRKRPPRLPRPRPRPKYYPRP | -0.0776
RRIRTRPPRLPRPRPRPANHPRP | -0.179
RRIRHRPPRLPRPRPRPNLLPRP | -0.13
RRIRCRPPRLPRPRPRPKIEPRP | -0.0736
RRIRLRPPRLPRPRPRPHKQPRP | -0.0935
RRIRMRPPRLPRPRPRPKAGPRP | 1.3
RRIRNRPPRLPRPRPRPNLVPRP | -0.0403
RRIRFRPPRLPRPRPRPDWPPRP | -0.0836
RRIRHRPPRLPRPRPRPWELPRP | -0.0835
RRIRDRPPRLPRPRPRPPCSPRP | 0.126
RRIRYRPPRLPRPRPRPVPPPRP | 0.208

Sequence | shrunken log2 fold change
RRIRWRPPRLPRPRPRPASPPRP | 0.131
RRIRERPPRLPRPRPRPYDHPRP | -0.397
RRIRQRPPRLPRPRPRPTMYPRP | -0.352
RRIRGRPPRLPRPRPRPRWDPRP | 0.696
RRIRHRPPRLPRPRPRPYWHPRP | -0.666
RRIRTRPPRLPRPRPRPQKTPRP | -0.0581
RRIRFRPPRLPRPRPRPDPFPRP | -0.341
RRIRNRPPRLPRPRPRPCPEPRP | 0.113
RRIRYRPPRLPRPRPRPQDVPRP | -0.103
RRIRDRPPRLPRPRPRPNWDPRP | 0.0503
RRIRDRPPRLPRPRPRPWLRPRP | 0.081
RRIRGRPPRLPRPRPRPGTTPRP | 0.379
RRIRCRPPRLPRPRPRPKKTPRP | -0.142
RRIRTRPPRLPRPRPRPGSYPRP | -0.0475
RRIRWRPPRLPRPRPRPFGAPRP | 0.197
RRIRIRPPRLPRPRPRPQFPPRP | -0.0492
RRIRNRPPRLPRPRPRPQSQPRP | -0.7
RRIRGRPPRLPRPRPRPFYHPRP | -0.102
RRIRLRPPRLPRPRPRPNVNPRP | -0.28
RRIRIRPPRLPRPRPRPKKSPRP | -0.202
RRIRDRPPRLPRPRPRPVPIPRP | 0.245
RRIRMRPPRLPRPRPRPWVAPRP | 0.109
RRIRKRPPRLPRPRPRPVALPRP | -0.0167
RRIRFRPPRLPRPRPRPQRAPRP | 0.462
RRIRMRPPRLPRPRPRPTCFPRP | 0.105

Sequence | shrunken log2 fold change
RRIRFRPPRLPRPRPRPLDKPRP | -0.103
RRIRMRPPRLPRPRPRPTAHPRP | 0.767
RRIRWRPPRLPRPRPRPTFWPRP | 0.617
RRIRARPPRLPRPRPRPCTFPRP | -0.365
RRIRYRPPRLPRPRPRPVFKPRP | -0.238
RRIRPRPPRLPRPRPRPFATPRP | 0.0676
RRIRDRPPRLPRPRPRPKIFPRP | -0.0898
RRIRNRPPRLPRPRPRPIWMPRP | 0.178
RRIRYRPPRLPRPRPRPYTRPRP | -1.51
RRIRDRPPRLPRPRPRPRAAPRP | 0.609
RRIRFRPPRLPRPRPRPRVVPRP | 0.298
RRIRQRPPRLPRPRPRPVLYPRP | 0.0138
RRIRARPPRLPRPRPRPQTEPRP | 0.292
RRIRKRPPRLPRPRPRPPLCPRP | 0.668
RRIRGRPPRLPRPRPRPIFGPRP | -0.0743
RRIRDRPPRLPRPRPRPWMRPRP | 0.013
RRIRERPPRLPRPRPRPAAPPRP | 0.504
RRIRGRPPRLPRPRPRPEMIPRP | 1.92
RRIRCRPPRLPRPRPRPMTMPRP | -0.27
RRIRFRPPRLPRPRPRPIGAPRP | 0.064
RRIRGRPPRLPRPRPRPKGCPRP | 2.83
RRIRQRPPRLPRPRPRPHAHPRP | 0.000761
RRIRARPPRLPRPRPRPNNAPRP | 0.00673
RRIRTRPPRLPRPRPRPVRIPRP | -0.0431
RRIRHRPPRLPRPRPRPMDTPRP | 0.03

Sequence | shrunken log2 fold change
RRIRERPPRLPRPRPRPKVSPRP | -0.205
RRIRDRPPRLPRPRPRPRFTPRP | 0.21
RRIRCRPPRLPRPRPRPDWVPRP | 0.0222
RRIRWRPPRLPRPRPRPYLPPRP | -0.826
RRIRHRPPRLPRPRPRPCPKPRP | 0.03
RRIRSRPPRLPRPRPRPYYYPRP | -0.507
RRIRKRPPRLPRPRPRPEIWPRP | 2.45
RRIRPRPPRLPRPRPRPEWVPRP | 0.332
RRIRGRPPRLPRPRPRPEGHPRP | 1.8
RRIRGRPPRLPRPRPRPAKIPRP | 0.226
RRIRCRPPRLPRPRPRPMCIPRP | -0.146
RRIRHRPPRLPRPRPRPRFSPRP | -0.137
RRIRCRPPRLPRPRPRPYAHPRP | -0.189
RRIRTRPPRLPRPRPRPVNSPRP | -0.342
RRIRNRPPRLPRPRPRPKSCPRP | -0.0533
RRIRQRPPRLPRPRPRPGDQPRP | -0.0566
RRIRARPPRLPRPRPRPWESPRP | 0.192
RRIRWRPPRLPRPRPRPAQNPRP | 0.437
RRIRCRPPRLPRPRPRPFGRPRP | -0.207
RRIRPRPPRLPRPRPRPHAVPRP | 0.0549
RRIRARPPRLPRPRPRPAKIPRP | 0.321
RRIRVRPPRLPRPRPRPVSVPRP | 0.0195
RRIRDRPPRLPRPRPRPAHVPRP | -0.0599
RRIRHRPPRLPRPRPRPDTRPRP | -0.0709
RRIRARPPRLPRPRPRPTQWPRP | 0.457
